# Measurements as given in the supplement of paper PMC10567573.
# B1: KRT13 (parent)
# chain: TPGIDLTRVLAEMREQYEAMAERN
# Variants of: B1
# Assay: protein stability index of a GFP-peptide fusion (GPS, HEK-293T) (PSI 1-6); higher = more stable
# Settings: c terminus: a fixed tail appended
# 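Also: lentivirally expressed fusions sorted by FACS into six bins by GFP to DsRed ratio, PSI derived from sequencing read proportions per bin multiplied by bin number.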
row,Variant,protein stability index
1,TPGIDLTRVLAEVREQYEAMAERN,3.3
2,TPGIDLTRVLAEDREQYEAMAERN,5.36
3,TPGIDLTRVLAEHREQYEAMAERN,4.74
4,TPGIDLTRVLAEYREQYEAMAERN,4.11
5,TPGIDLTRVLAESREQYEAMAERN,4.7
6,TPGIDLTRVLAECREQYEAMAERN,4.23
7,TPGIDLTRVLAENREQYEAMAERN,5.48
8,TPGIDLTRVLAEEREQYEAMAERN,5.33
9,TPGIDLTRVLAEPREQYEAMAERN,3.3
10,TPGIDLTRVLAEQREQYEAMAERN,4.1
11,TPGIDLTRVLAERREQYEAMAERN,4.93
12,TPGIDLTRVLAEKREQYEAMAERN,4.24
13,TPGIDLTRVLAEAREQYEAMAERN,4.67
14,TPGIDLTRVLAEGREQYEAMAERN,4.72
15,TPGIDLTRVLAETREQYEAMAERN,4.53
16,TPGIDLTRVLAEIREQYEAMAERN,3.71
17,TPGIDGTRVLAEMREQYEAMAERN,4.98
18,TPGIDITRVLAEMREQYEAMAERN,4.13
19,TPGIDQTRVLAEMREQYEAMAERN,5.01
20,TPGIDCTRVLAEMREQYEAMAERN,4.79
21,TPGIDSTRVLAEMREQYEAMAERN,5.29
22,TPGIDYTRVLAEMREQYEAMAERN,3.37
23,TPGIDKTRVLAEMREQYEAMAERN,4.7
24,TPGIDFTRVLAEMREQYEAMAERN,3.98

row,Variant,protein stability index
1,TPGIDRTRVLAEMREQYEAMAERN,4.84
2,TPGIDETRVLAEMREQYEAMAERN,4.69
3,TPGIDHTRVLAEMREQYEAMAERN,3.99
4,TPGIDTTRVLAEMREQYEAMAERN,5.4
5,TPGIDNTRVLAEMREQYEAMAERN,5.14
6,TPGIDATRVLAEMREQYEAMAERN,4.15
7,TPGIDDTRVLAEMREQYEAMAERN,3.84
8,TPGIDVTRVLAEMREQYEAMAERN,3.88
9,TPGIDWTRVLAEMREQYEAMAERN,3.09
10,TPGIMLTRVLAEMREQYEAMAERN,3.81
11,TPGITLTRVLAEMREQYEAMAERN,3.68
12,TPGIHLTRVLAEMREQYEAMAERN,4.29
13,TPGIFLTRVLAEMREQYEAMAERN,2.19
14,TPGIPLTRVLAEMREQYEAMAERN,4.69
15,TPGINLTRVLAEMREQYEAMAERN,3.88
16,TPGIGLTRVLAEMREQYEAMAERN,1.58
17,TPGIKLTRVLAEMREQYEAMAERN,2.21
18,TPGISLTRVLAEMREQYEAMAERN,3.86
19,TPGIILTRVLAEMREQYEAMAERN,2.66
20,TPGIQLTRVLAEMREQYEAMAERN,3.8
21,TPGICLTRVLAEMREQYEAMAERN,2.73
22,TPGIWLTRVLAEMREQYEAMAERN,1.72
23,TPGIALTRVLAEMREQYEAMAERN,5.15
24,TPGIELTRVLAEMREQYEAMAERN,4.54

row,Variant,protein stability index
1,TPGIVLTRVLAEMREQYEAMAERN,2.63
2,TPGIDLVRVLAEMREQYEAMAERN,2.81
3,TPGIDLPRVLAEMREQYEAMAERN,4.16
4,TPGIDLIRVLAEMREQYEAMAERN,2.26
5,TPGIDLARVLAEMREQYEAMAERN,3.77
6,TPGIDLDRVLAEMREQYEAMAERN,4.45
7,TPGIDLNRVLAEMREQYEAMAERN,3.92
8,TPGIDLLRVLAEMREQYEAMAERN,2.17
9,TPGIDLSRVLAEMREQYEAMAERN,3.07
10,TPGIDLFRVLAEMREQYEAMAERN,2.24
11,TPGIDLKRVLAEMREQYEAMAERN,2.88
12,TPGIDLGRVLAEMREQYEAMAERN,3.36
13,TPGIDLERVLAEMREQYEAMAERN,4.25
14,TPGIDLWRVLAEMREQYEAMAERN,3.28
15,TPGIDLRRVLAEMREQYEAMAERN,2.8
16,TPGIDLHRVLAEMREQYEAMAERN,3.81
17,TPGPDLTRVLAEMREQYEAMAERN,4.39
18,TPGCDLTRVLAEMREQYEAMAERN,4.87
19,TPGYDLTRVLAEMREQYEAMAERN,3.75
20,TPGFDLTRVLAEMREQYEAMAERN,3.63
21,TPGQDLTRVLAEMREQYEAMAERN,3.72
22,TPGTDLTRVLAEMREQYEAMAERN,3.31
23,TPGRDLTRVLAEMREQYEAMAERN,4.14
24,TPGHDLTRVLAEMREQYEAMAERN,4.85

row,Variant,protein stability index
1,TPGKDLTRVLAEMREQYEAMAERN,3.45
2,TPGNDLTRVLAEMREQYEAMAERN,2.62
3,TPGSDLTRVLAEMREQYEAMAERN,4.48
4,TPGVDLTRVLAEMREQYEAMAERN,3.8
5,TPGADLTRVLAEMREQYEAMAERN,3.97
6,TPGIDLTRVLHEMREQYEAMAERN,3.95
7,TPGIDLTRVLIEMREQYEAMAERN,3.51
8,TPGIDLTRVLKEMREQYEAMAERN,4.23
9,TPGIDLTRVLSEMREQYEAMAERN,4.61
10,TPGIDLTRVLQEMREQYEAMAERN,2.85
11,TPGIDLTRVLTEMREQYEAMAERN,3.88
12,TPGIDLTRVLFEMREQYEAMAERN,3.7
13,TPGIDLTRVLMEMREQYEAMAERN,2.79
14,TPGIDLTRVLNEMREQYEAMAERN,3.77
15,TPGIDLTRVLVEMREQYEAMAERN,3.79
16,TPGIDLTRVLLEMREQYEAMAERN,3.51
17,TPGIDLTRVLDEMREQYEAMAERN,4.01
18,TPGIDLTRVLYEMREQYEAMAERN,3.74
19,TPGIDLTRVLPEMREQYEAMAERN,4.65
20,TPGIDLTRQLAEMREQYEAMAERN,4.41
21,TPGIDLTRHLAEMREQYEAMAERN,4.47
22,TPGIDLTRPLAEMREQYEAMAERN,4.49
